In publication PMC10397247 one finds interaction score data, which are given here for four molecules.

What all share (assay): two-hybrid library CCNG1;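 further: natural log of median RNA to DNA barcode read ratio; higher means stronger binding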
For one test, the target named is T1, O6.
T1 chain: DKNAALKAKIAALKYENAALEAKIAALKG

Another test has as its target T2, O9.
T2 chain: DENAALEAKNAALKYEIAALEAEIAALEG

Another test addresses T3, O11.
T3 chain: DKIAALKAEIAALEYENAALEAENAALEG

In the next test the target is T4, P3A-bS.
T4 chain: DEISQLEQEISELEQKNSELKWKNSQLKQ

For the next test, the target named is T5, O12.
T5 chain: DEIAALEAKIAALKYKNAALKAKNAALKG

In the next test the target is T6, O8.
T6 chain: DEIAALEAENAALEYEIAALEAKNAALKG

The target in the next test is T7, O16.
T7 chain: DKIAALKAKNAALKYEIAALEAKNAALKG

The next test addresses T8, O13.
T8 chain: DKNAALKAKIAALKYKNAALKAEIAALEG

In a further test the target is T9, O3.
T9 chain: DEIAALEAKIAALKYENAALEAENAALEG

A further test addresses T10, O4.
T10 chain: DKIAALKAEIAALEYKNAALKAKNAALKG

For the next test, the target named is T11, O14.
T11 chain: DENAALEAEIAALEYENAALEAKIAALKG

The target in the next test is T12, O15.
T12 chain: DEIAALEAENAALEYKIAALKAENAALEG

In a further test the target is T13, O2.
T13 chain: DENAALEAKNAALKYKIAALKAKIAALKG

Another test deals with T14, O5.
T14 chain: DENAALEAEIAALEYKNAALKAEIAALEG

The target of another test is T15, O7.
T15 chain: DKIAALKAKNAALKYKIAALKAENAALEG

The target in a further test is T16, 4H2931-bA.
T16 chain: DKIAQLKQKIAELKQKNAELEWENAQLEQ

The next test concerns the target T17, 4H3364-bA.
T17 chain: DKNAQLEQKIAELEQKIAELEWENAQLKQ

The target of a further test is T18, 4H932-bA.
T18 chain: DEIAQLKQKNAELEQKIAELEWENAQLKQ

The target of another test is T19, 4H3427-bA.
T19 chain: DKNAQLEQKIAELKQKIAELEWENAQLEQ

The target of the next test is T20, 4H3381-bA.
T20 chain: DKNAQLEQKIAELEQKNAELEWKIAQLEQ

In the next test the target is T21, 4H349-bA.
T21 chain: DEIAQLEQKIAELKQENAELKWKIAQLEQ

The target in a further test is T22, 4H796-bA.
T22 chain: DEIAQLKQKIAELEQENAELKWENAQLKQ

A further test addresses T23, 4H730-bA.
T23 chain: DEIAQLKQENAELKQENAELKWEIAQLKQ

The next test has as its target T24, O8-bS.
T24 chain: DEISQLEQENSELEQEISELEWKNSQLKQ

A further test concerns the target T25, 4H3297-bA.
T25 chain: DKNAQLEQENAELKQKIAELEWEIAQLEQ

The next test addresses T26, 4H2760-bA.
T26 chain: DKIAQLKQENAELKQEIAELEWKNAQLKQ

A further test deals with T27, P5SH.
T27 chain: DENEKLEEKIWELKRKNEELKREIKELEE

In another test the target is T28, 4H264-bA.
T28 chain: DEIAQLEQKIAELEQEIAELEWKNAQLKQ

The target of the next test is T29, 4H3041-bA.
T29 chain: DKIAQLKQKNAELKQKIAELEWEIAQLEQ

The target of another test is T30, 4H949-bA.
T30 chain: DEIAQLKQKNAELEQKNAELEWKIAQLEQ

The next test concerns the target T31, 4H56-bA.
T31 chain: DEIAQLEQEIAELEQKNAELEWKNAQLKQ

The target of the next test is T32, 4H2859-bA.
T32 chain: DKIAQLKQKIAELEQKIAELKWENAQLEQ

The target in another test is T33, 4H850-bN.
T33 chain: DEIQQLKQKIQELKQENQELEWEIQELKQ

The target of another test is T34, 4H3926-bN.
T34 chain: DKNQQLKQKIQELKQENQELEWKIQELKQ

For the next test, the target named is T35, 4H1348-bN.
T35 chain: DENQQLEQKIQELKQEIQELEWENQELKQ

For another test, the target named is T36, 4H570-bN.
T36 chain: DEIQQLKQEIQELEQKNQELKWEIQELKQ

For another test, the target named is T37, 4H1449-bN.
T37 chain: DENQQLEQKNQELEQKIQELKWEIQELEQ

The target in another test is T38, 4H1544-bN.
T38 chain: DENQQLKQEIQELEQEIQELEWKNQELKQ

The next test addresses T39, 4H3613-bN.
T39 chain: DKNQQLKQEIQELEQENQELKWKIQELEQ

A further test concerns the target T40, P6bH1.
T40 chain: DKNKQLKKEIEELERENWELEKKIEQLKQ

In another test the target is T41, 4H1710-bN.
T41 chain: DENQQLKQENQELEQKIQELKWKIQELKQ

In the next test the target is T42, 4H591-bN.
T42 chain: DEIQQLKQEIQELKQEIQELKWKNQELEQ

The next test concerns the target T43, 4H3175-bN.
T43 chain: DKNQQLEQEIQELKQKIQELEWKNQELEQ

In a further test the target is T44, 4H3817-bN.
T44 chain: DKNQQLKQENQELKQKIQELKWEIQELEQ

The target in a further test is T45, 4H1985-bN.
T45 chain: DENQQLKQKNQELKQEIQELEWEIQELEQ

The next test addresses T46, 4H3277-bN.
T46 chain: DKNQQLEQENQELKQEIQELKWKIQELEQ

Another test concerns the target T47, 4H3858-bN.
T47 chain: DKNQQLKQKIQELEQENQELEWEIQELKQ

Another test addresses T48, 4H3974-bN.
T48 chain: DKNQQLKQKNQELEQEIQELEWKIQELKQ

Another test deals with T49, 4H906-bN.
T49 chain: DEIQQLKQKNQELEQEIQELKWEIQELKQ

Another test addresses T50, 4H1899-bN.
T50 chain: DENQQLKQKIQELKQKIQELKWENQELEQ

A further test deals with T51, 4H3298-bN.
T51 chain: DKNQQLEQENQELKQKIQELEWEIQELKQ

The next test has as its target T52, 4H3462-bN.
T52 chain: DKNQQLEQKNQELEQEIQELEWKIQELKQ

The target of the next test is T53, 4H626-bN.
T53 chain: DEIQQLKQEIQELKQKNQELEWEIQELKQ

The target of a further test is T54, 4H1373-bN.
T54 chain: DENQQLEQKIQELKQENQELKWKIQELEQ

The next test concerns the target T55, 4H3497-bN.
T55 chain: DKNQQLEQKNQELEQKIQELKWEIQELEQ

The next test addresses T56, 4H3162-bN.
T56 chain: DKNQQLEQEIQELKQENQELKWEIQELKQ

Another test concerns the target T57, 4H3628-bN.
T57 chain: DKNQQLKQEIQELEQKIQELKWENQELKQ

For the next test, the target named is T58, 4H906-bA.
T58 chain: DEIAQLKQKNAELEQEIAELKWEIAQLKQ

Another test concerns the target T59, 4H850-bA.
T59 chain: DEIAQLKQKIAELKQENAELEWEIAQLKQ

For a further test, the target named is T60, 4H953-bN.
T60 chain: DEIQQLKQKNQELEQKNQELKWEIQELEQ

For a further test, the target named is T61, 4H570-bA.
T61 chain: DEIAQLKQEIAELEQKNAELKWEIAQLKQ

Another test addresses T62, 4H584-bA.
T62 chain: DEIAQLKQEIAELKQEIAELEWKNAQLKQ

For a further test, the target named is T63, 4H619-bA.
T63 chain: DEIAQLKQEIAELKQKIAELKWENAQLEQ

As for DKIAALKAEIAALEYENAALEAENAALEG [O11], the interaction score with O6 is -2.37; in the test with O9, -2.14; with O11, -2.47; with P3A-bS, 0.868; with O12, 2; in the test with O8, -2.51. Further, the interaction score was -2.6 with O16; -1.9 with O13; -1.74 in the test with O3; 1.77 in the test with O4; -2.48 in the test with O14; -2.22 with O15. For the same molecule, the interaction score in the test with O2 was -2.18; with O5 it was -2.06; in the test with O7, -1.85.
In the case of DEIAQLEQKIAELEQEIAELEWKNAQLKQ [4H264-bA], the interaction score in the test with 4H2931-bA was 2.07; in the test with 4H3364-bA, 0.942; with 4H932-bA it was -0.419; with 4H3427-bA it was 1.19; in the test with 4H3381-bA it was 0.311; in the test with 4H349-bA it was -0.396. Moreover, the interaction score in the test with 4H796-bA is -0.521; with 4H730-bA, -1.63; with O8-bS, -1.91; with 4H3297-bA, 0.896; with 4H2760-bA it was -0.475; with P5SH, 1.79. Further, the interaction score with 4H264-bA was 1.38; with 4H3041-bA it was 2.21; with 4H949-bA, -0.323; with 4H56-bA it was -0.504; with 4H2859-bA, 1.6.
Consider DENQQLEQKIQELKQEIQELEWENQELKQ [4H1348-bN], for which the interaction score with 4H850-bN was 0.761; with 4H3926-bN it was -0.478; in the test with 4H1348-bN it was -1.55; with 4H570-bN it was 0.123; with 4H1449-bN, -0.5; with 4H1544-bN, -1.46. Moreover, the interaction score was -0.0173 with 4H3613-bN; -0.556 with P6bH1; -1.09 with 4H1710-bN; -1.4 with 4H591-bN; -0.302 with 4H3175-bN; -0.958 with 4H3817-bN. The interaction score was -0.781 with 4H1985-bN; -0.122 with 4H3277-bN; -0.748 with 4H3858-bN; 0.224 in the test with 4H3974-bN; -0.116 with 4H906-bN; -0.707 with 4H1899-bN. For the same molecule, the interaction score in the test with 4H3298-bN was 0.08; in the test with 4H3462-bN, -0.171; with 4H626-bN, -0.135; with 4H1373-bN, -0.955; with 4H3497-bN, -0.431; in the test with 4H3162-bN, -0.0481. The molecule also showed an interaction score with 4H3628-bN of -0.12.
Turning to DEIAQLKQEIAELEQKNAELKWEIAQLKQ [4H570-bA], the interaction score with 4H906-bA was 0.277; with 4H850-bA it was 1.98; with O11, -0.882; in the test with 4H953-bN, -0.0403; with 4H570-bA it was -0.223; with 4H584-bA, -1.33. This molecule also gave an interaction score in the test with 4H619-bA of -1.3.
